Laboratory results reported in patent US7927864B2, “Methods, kits, and compositions for detecting enzyme activity” (Wake Forest University Health Sciences, priority 2006, dated 2011).

Experiments:
ADAMTS13 [1] = assay: FRET measurement of ADAMTS13 cleavage of fluorescein-labeled recombinant VWF73 peptide in plasma; type: biochemical
Protocol: (§1) The working peptide was prepared by dissolving the peptide pellets in DMSO and then diluted with assay buffer, 5 mM Bis-Tris, 25 mM CaCl2, 0.005% Tween 20 at pH 6.0 to a final concentration of 4.5 μM. Pooled Normal Plasma (PNP) was used as a source of ADAMTS13. Heat inactivated PNP, heated overnight at 56° C., and known ADAMTS13-deficient patient plasma were used as negative controls. All samples were diluted 1 in 8 with assay buffer to reduce the ionic strength. Reactions were carried out in 96 well plates using 100 μL of dilute plasma and 100 μL of working peptide solution. The rate of fluorescence increase with time was monitored by a fluorometer.
(§2) FIG. 2 depicts fluorescence of the recombinant peptide during incubation. […] Each experiment was performed in triplicate and mean values are shown. Thus, it is apparent that the fluorescence increase resulting from the separation of fluors by ADAMTS13 cleavage of a labeled peptide substrate is measurable and can be used for FRET based enzyme assays.
(§3) FIG. 3 depicts the rates of change of fluorescence produced by dilutions of PNP in heat inactivated PNP. Undiluted PNP represents 100% ADAMTS13 enzyme activity for purposes of determining quantitative enzyme activity. Each point represents the mean±SEM of triplicate determination. Thus, it is apparent that recombinant fluorescein labeled peptides can be used as effective substrates in quantitative FRET based assays of ADAMTS13. Further techniques for quantitative analysis of enzyme activity are well known to skilled artisans.

ADAMTS13 [2] = molecular target: T1, ADAMTS13 (Homo sapiens, UniProt Q76LX8); assay: as above; type: biochemical; settings: incubation with pooled normal plasma (PNP) as source of ADAMTS13; peptide 4.5 μM working solution, plasma diluted 1 in 8, pH 6.0
T1 construct: Pooled Normal Plasma (PNP) was used as a source of ADAMTS13; from tissue; host or cells: pooled normal plasma (PNP); the substrate peptide was made in M15 E. coli
T1 sequence (Q76LX8 75-1427): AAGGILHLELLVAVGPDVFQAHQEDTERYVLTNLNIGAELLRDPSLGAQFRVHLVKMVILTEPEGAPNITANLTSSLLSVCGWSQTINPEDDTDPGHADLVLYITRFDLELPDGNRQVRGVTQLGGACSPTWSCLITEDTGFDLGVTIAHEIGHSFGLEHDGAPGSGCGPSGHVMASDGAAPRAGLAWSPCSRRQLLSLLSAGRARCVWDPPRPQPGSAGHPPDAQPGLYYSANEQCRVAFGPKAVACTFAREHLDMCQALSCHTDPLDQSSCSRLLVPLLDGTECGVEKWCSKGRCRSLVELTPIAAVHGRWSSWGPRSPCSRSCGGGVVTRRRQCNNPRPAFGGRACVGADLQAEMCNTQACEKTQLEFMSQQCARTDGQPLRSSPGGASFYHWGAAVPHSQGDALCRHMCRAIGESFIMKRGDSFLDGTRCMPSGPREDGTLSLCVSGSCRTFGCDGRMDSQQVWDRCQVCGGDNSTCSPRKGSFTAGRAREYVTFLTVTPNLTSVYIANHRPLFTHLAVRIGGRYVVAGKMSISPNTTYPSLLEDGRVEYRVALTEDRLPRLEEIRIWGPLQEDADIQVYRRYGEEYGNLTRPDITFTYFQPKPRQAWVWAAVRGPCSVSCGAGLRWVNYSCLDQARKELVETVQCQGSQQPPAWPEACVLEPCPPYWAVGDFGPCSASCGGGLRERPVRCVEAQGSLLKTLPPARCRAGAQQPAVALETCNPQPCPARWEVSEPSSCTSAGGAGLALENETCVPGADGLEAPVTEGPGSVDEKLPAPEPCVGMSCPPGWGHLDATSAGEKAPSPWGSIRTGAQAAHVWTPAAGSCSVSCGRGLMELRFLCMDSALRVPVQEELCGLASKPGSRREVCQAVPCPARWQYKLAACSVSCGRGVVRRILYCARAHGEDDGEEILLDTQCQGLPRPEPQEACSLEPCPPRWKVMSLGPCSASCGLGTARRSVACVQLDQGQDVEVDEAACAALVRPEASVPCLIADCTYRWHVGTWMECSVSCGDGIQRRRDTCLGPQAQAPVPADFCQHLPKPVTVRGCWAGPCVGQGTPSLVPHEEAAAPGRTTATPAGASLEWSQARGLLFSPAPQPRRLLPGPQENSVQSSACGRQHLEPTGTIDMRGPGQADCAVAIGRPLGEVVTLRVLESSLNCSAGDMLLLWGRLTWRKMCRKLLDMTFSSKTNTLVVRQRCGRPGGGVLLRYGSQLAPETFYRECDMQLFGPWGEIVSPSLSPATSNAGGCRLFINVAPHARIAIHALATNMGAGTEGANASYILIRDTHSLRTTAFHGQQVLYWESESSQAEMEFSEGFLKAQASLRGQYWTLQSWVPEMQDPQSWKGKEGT
Protocol: as §1, §2, §3

B1: recombinant peptide: Recombinant His-tagged 73 amino acid VWF A2 peptide (SEQ ID NO: 1); Q1599 and P1611 mutated to cysteines, both labeled with fluorescein (conjugate)
chain: DRECAPNLVYMVTGNCASDEIKRLPGDIQVVPIGVGPNANVQELERIGWPNAPILIQDFETLPREAPDLVLQR
modifications: fluorescein labels on cysteines; His-tag; This is a 73 amino acid fragment of native von Willebrand factor, substituted with cysteines at positions 4 and 16.
notes: Q1599 and P1611 mutated to cysteines, both labeled with fluorescein
- fluorescence of the recombinant peptide during incubation (ADAMTS13 [1]; incubation with heat inactivated PNP (negative control)): only minimal change in fluorescence
- fluorescence of the recombinant peptide during incubation (ADAMTS13 [1]; incubation with plasma samples from TTP patients with no ADAMTS13 activity (negative control)): only minimal change in fluorescence
- fluorescence of the recombinant peptide during incubation (ADAMTS13 [2]): steady increase of fluorescence over time
